Measured values reported in PMC10901556, “Conservation of Affinity Rather Than Sequence Underlies a Dynamic Evolution of the Motif-Mediated p53/MDM2 Interaction in Ray-Finned Fishes” (Molecular Biology and Evolution, 2024).
Values belong to the substance of their own block, whether it stands above or below them.

Key:
[1] = molecular target: MDM2 SWIB domain from Anguilla anguilla (European eel) (Anguilla anguilla (European eel)); assay: fluorescence polarisation; displacement: complex of MDM2 (0.2-2 μM) and FITC-p53TAD_(human)^15–26 (15 nM) displaced by increasing unlabeled p53TAD peptide or p53TAD^full-length; KD calculated from IC50 (Nikolovska-Coleska et al. 2004); 20 mM sodium phosphate pH 7.4, 150 mM NaCl, 1 mM TCEP
[2] = molecular target: MDM2 SWIB domain from Channa argus (Channa argus); assay: as above
[3] = molecular target: MDM2 SWIB domain from Clupea harengus (Atlantic herring) (Clupea harengus (Atlantic herring)); assay: as above
[4] = molecular target: MDM2 SWIB domain from Lepisosteus oculatus (spotted gar) (Lepisosteus oculatus (spotted gar)); assay: as above
[5] = molecular target: MDM2 SWIB domain from Maylandia zebra (Maylandia zebra); assay: as above
[6] = molecular target: MDM2 SWIB domain from Oncorhynchus kisutch (coho salmon) (Oncorhynchus kisutch (coho salmon)); assay: as above
[7] = molecular target: MDM2_(D.rerio) SWIB domain (Danio rerio (zebrafish)); assay: as above
MDM2 SWIB (Homo sapiens) = MDM2 SWIB (Homo sapiens) (UniProt Q00987); details: cited from earlier work
[8] = molecular target: MDM2_(D.rerio) SWIB domain (Danio rerio (zebrafish)); assay: ITC; MicroCal iTC200, 25 °C; D. rerio MDM2 11 μM in the cell, p53TAD 118 or 116 μM in the syringe; 20 mM sodium phosphate pH 7.4, 150 mM NaCl, 1 mM TCEP
[9] = molecular target: MDM2_(D.rerio) SWIB domain; assay: fluorescence polarization competition assay
[10] = molecular target: MDM2 SWIB domain from Takifugu rubripes (Japanese puffer) (Takifugu rubripes (Japanese puffer)); assay: fluorescence polarisation; displacement: complex of MDM2 (0.2-2 μM) and FITC-p53TAD_(human)^15–26 (15 nM) displaced by increasing unlabeled p53TAD peptide or p53TAD^full-length; KD calculated from IC50 (Nikolovska-Coleska et al. 2004); 20 mM sodium phosphate pH 7.4, 150 mM NaCl, 1 mM TCEP

Substance: Anguilla anguilla (European eel) p53TADP1 p53TAD^full-length (domain or fragment)
Kd [1]: 230 nM

Substance: Clupea harengus (Atlantic herring) p53TADP1 p53TAD^full-length (domain or fragment)
Kd [3]: 190 nM

Substance: Clupea harengus p53TADP2 p53TAD^full-length (domain or fragment)
Kd [3]: 40 nM

Substance: Lepisosteus oculatus (spotted gar) p53TAD^full-length (domain or fragment)
Kd [4]: 85 nM

Substance: Maylandia zebra p53TADP1 p53TAD^full-length (domain or fragment)
Kd [5]: 190 nM

Substance: Oncorhynchus kisutch (coho salmon) p53TADP1a p53TAD^full-length (domain or fragment)
Kd [6]: 48 nM

Substance: Oncorhynchus kisutch p53TADP2 p53TAD^full-length (domain or fragment)
Kd [6]: 70 nM

Substance: alternative p53TAD^17–32_(D.rerio) (P79734) (peptide)
Kd [7]: 580 nM

Substance: p53 TAD (from UniProt P04637)
Kd (MDM2 SWIB (Homo sapiens)): 100 nM

Substance: p53TAD^17–32_(D.rerio) (peptide)
Kd [7]: 180 nM
Kd [8]: 300 nM

Substance: p53TAD_(H.sapiens)^15–27 (peptide)
Kd [10]: 1100 nM
Kd [5]: 1700 nM
Kd [1]: 900 nM
Kd [6]: 780 nM
Kd [2]: 2100 nM
Kd [4]: 370 nM
Kd [3]: 1800 nM

Now from value to substance:

Kd [1]: 60 nM
Substance: Anguilla anguilla p53TADP2 p53TAD^full-length (domain or fragment)

Kd [2]: 100 nM
Substance: Channa argus p53TADP1 p53TAD^full-length (domain or fragment)

Kd [3]: 600 nM
Substance: Clupea harengus p53TADP2 p53TAD^15–27 (peptide)

Kd [6]: 60 nM
Substance: Oncorhynchus kisutch p53TADP1b p53TAD^full-length (domain or fragment)

Kd [9]: 460 nM
Substance: p53TAD^17–32_(D.rerio) I28A

Kd [7]: 49 nM
Kd [8]: 100 nM
Substance: p53TAD_(D.rerio)^full-length (domain or fragment)
